The text below walks through data of patent publication US20200102389A1 (Hoffmann-La Roche, published 2020).

The target of assay [1] is T1, recombinant soluble human HLA-G β2M MHC class I complex, dimer (human).
T1 construct: also called HLA-G Dimer; fraction A9
Description: ELISA, HLA-G dimer coated on plate. The method, then:
(§1) The above table summarizes the binding of different rat anti-human HLA-G monoclonal antibodies, derived from wt protein IMS. Shown are the relative EC50 values [ng/ml] of the respective binding to rec. wt monomeric, dimeric and trimeric HLA-G proteins as assessed by ELISA. The ELISA was set up by coating the biotinylated wt HLA-G antigen to strepdavidin plates. After incubation and washing steps, the respective antibodies were bound in a concentration range from 10-0 μg in 1:2 dilution steps. Detection of bound antibodies was carried out by anti-Fc-antibody-POD conjugates. EC50 values were determined from the resulting binding curves at the antibody concentrations generating the half-maximal signal. In case of the non-biotinylated HLA-G dimer and trimer antigens, immobilization was carried out by random coating on assay plates.
(In general: ELISA stands for enzyme-linked immunosorbent assay.)

Assay [2] deals with T2, recombinant soluble human HLA-G β2M MHC class I complex, trimer (human).
T2 construct: also called HLA-G Trimer; fraction A8
Description: ELISA, HLA-G trimer coated on plate. The method, then: as §1

Assay [3] has as its target T3, recombinant soluble human HLA-G β2M MHC class I complex, monomer (human).
T3 construct: His tagged; also called HLA-G-0003
Description: competition ELISA, immobilised biotinylated wt HLA-G, competitor c-myc ILT2. As to the method: Streptavidin coated plates (Nunc, MicroCoat #11974998001) were coated with 25 μl/well biotinylated human wt HLA-G at a concentration of 500 ng/ml and incubated at 4° C. overnight. After washing (3×90 μl/well with PB ST-buffer) 25 μl anti-HLA-G samples were added in decreasing concentrations starting at 8 μg/ml, then diluted in 1:3 steps and incubated 1 h at RT. After washing (3×90 μl/well with PBST-buffer) 25 μl/well c-myc-tagged recombinant ILT-2 receptor was added at a concentration of 150 ng/ml and incubated for 1 h at room temperature. After washing (3×90 μl/well with PBST-buffer) 25 μl/well goat-anti-c-myc-POD (Bethyl #A190-104P 1:7000 in OSE) was added and incubated at RT for 1 h on a shaker. After washing (6×90 μl/well with PBST-buffer), 25 μl/well TMB substrate (Roche, 11835033001) was added and incubated until OD 2-3. Measurement took place on a Tecan Safire 2 instrument at 370/492 nm
(§2) The ELISA was set up by coating the biotinylated antigen wt HLA-G to strepdavidin plates. After incubation and washing steps, the respective antibodies were bound in a concentration range from 8-0 μg in 1:3 dilution steps. C-myc tagged ILT-2 or -4 receptor was added to the HLA-G-antibody complexes. After incubation and washing steps, detection of bound receptor was carried out by anti-cmyc-antibody-POD conjugates. IC50 values were determined from the resulting inhibition curves at the antibody concentrations generating the half-maximal inhibition. In case of the non-biotinylated HLA-G dimer and trimer antigens, immobilization was carried out by random coating on assay plates.

Assay [4] concerns the target T3, recombinant soluble human HLA-G β2M MHC …. Nature of the assay: competition ELISA, immobilised biotinylated wt HLA-G, competitor c-myc ILT4. As to the method:
The above table summarizes the blocking of interaction between rec. HLA-G proteins (monomer and oligomers) to its receptors ILT2 and ILT4 as assessed by ELISA.
as §2

Assay [5] addresses T1, recombinant soluble human HLA-G β2M MHC …. Nature of the assay: blocking ELISA, Fc tagged ILT2 coated, 100 nM antibody, soluble HLA-G dimer. As to the method: (§3) The ELISA was set up by coating the Fc tagged ILT2 and ILT4 respectively to Maxisorp microtiter plates. After incubation and washing steps, the respective antibodies were added at a concentration of 100nM. Soluble His tagged monomeric, dimeric or trimeric HLA-G was added to the wells. After incubation and washing steps, detection of bound receptor was carried out by anti-His-antibody-POD conjugates.

The target in assay [6] is T3, recombinant soluble human HLA-G β2M MHC …. Description: blocking ELISA, Fc tagged ILT2 coated, 100 nM antibody, soluble HLA-G monomer. The method, then:
as §3

Assay [7] addresses T1, recombinant soluble human HLA-G β2M MHC …. Nature of the assay: competition ELISA, immobilised HLA-G dimer, antibody titrated, competitor c-myc ILT2. As to the method:
as §2

Assay [8] concerns the target T2, recombinant soluble human HLA-G β2M MHC …. Description: competition ELISA, immobilised HLA-G trimer, antibody titrated, competitor c-myc ILT2. As to the method: as §2
Assay [9] has the same target. Nature of the assay: competition ELISA, immobilised HLA-G trimer, antibody titrated, competitor c-myc ILT4. The method, then:
as §2

B1: HLA-G-0032 (antibody, V domains shown)
VH: QVQLQQSGAELVKPGSSVKISCKASGYSFPSYDMHWIKQQPGNGLEWIGWIYPGNGNTKYNQKFNGKASLTADKSSSTAYMQLSSLTSEDSAVYFCAKPTVATRYNWFAYWGQGTLVTVSS
VL: QIVLTQSPALMSASPGEKVTMTCSASSSVNYMHWYQQKPRSSPKPWIYLTSNLASGVPARFSGSGSGTSYSLTISTMEAEDAATYYCQQWSSNLPITFGSGTKLEIK
The EC50 is the concentration that produces a half-maximal response. In general, IC50 refers to the concentration that inhibits the measured activity by half. Consider B1, for which the EC50 in [1] amounted to 1.36 nM; in assay [2] it was 1.76 nM. For the same molecule, in assay [3], the “% inh. ILT2 (3 µg/ml antibody)” value came to 86.8%. Moreover, the “% inh. ILT4” value in [4] came out at 43%. Further, the figures for the “% inh. ILT2” value in assay [5] and in assay [6] were 95% and 75%, respectively. For the same molecule, the IC50 in [7] came to 1.3 nM; in [8], 0.4 nM; in assay [9] it was 71.3 nM.

B2: HLA-G-0033 (antibody, V domains shown)
VH: EVQLVETGGGLVQSGRSLKLSCVASGFTFNDYWMTWTRQAPGKGLEWVASITNSGGRTYYLDSVRGRFTISRDDAQNTLYLQMNSLRSEDTATYYCTKERIYLTAYWFFDFWGPGTMVTVSS
VL: DTILTQSPALAVSPGERVTISCRASESVSTLIHWYQQKPGQRPKLLIYLASHLESGVPARFSGSGSGTDFTLTIDPVEADDTATYYCQQSWNEPRTFGGGTKLELK
As for B2, the EC50 came to 1.98 nM in assay [1] and 1.54 nM in assay [2]. Besides, the “% inh. ILT2 (3 µg/ml antibody)” value in [3] came to 85.3%. In assay [4], the “% inh. ILT4” value is 44.6%. Moreover, the “% inh. ILT2” value was found to be 95% in [5] and 75% in assay [6]. Also, the IC50 turned out to be 1.2 nM in [7], 0.5 nM in assay [8] and 61.5 nM in assay [9].

B3: HLA-G-0037 (antibody, V domains shown)
VH: QVQLKESGPGLVQPSQTLSLTCSVSGFSLTTYSVSWVRQPPGKGLEWIGAIWSGGSTDYNSALKSRLRISRDTSKSQVLLKMNSLQTEDRAMYFCVRMNNKFGYWYFDLWGPGTMVTVSS
VL: DTVLTQSPTLAVSPGEKITISCRASETVSTMLHWYQQKPGQQPKLLISLASHLESGVPARFTGSGSGTDFTLTIDPVEADDTATYYCQQTWNDPLTFGSGTKLEIK
As for B3, the values for the half-maximal effective concentration (EC50) in assay [1] and in assay [2] were 2.01 nM and 2.5 nM, respectively. For the same molecule, the “% inh. ILT2 (3 µg/ml antibody)” value in [3] is 82.9%. Besides, in assay [4], the “% inh. ILT4” value stood at 41%. Also, the “% inh. ILT2” value came out at 96% in assay [5] and 73% in assay [6]. In addition, the figures for the IC50 in assay [7], in assay [8] and in assay [9] were 0.8 nM, 0.1 nM and above 200 nM, respectively.
